From article PMC11966780 come the findings set out here.

What all share (experiment): label-free LC-MS/MS
The target of test [1] is AAV-DJ capsid incorporating VP3 with the ALFAnb inserted at position H631 (AAV-DJ | not stated).
Test [2] deals with AAV-DJ capsid incorporating VP1 with a GFPnb inserted at position H631 (AAV-DJ | not stated).
In test [3] the target is AAV-DJ capsid incorporating VP3 with a GFPnb inserted at position H631 (AAV-DJ | not stated).

Take “GFP C-terminally tagged with a c-Myc NLS followed by the ALFA tag”: in test [1], the GFP/capsid (GFP-NLS-ALFA proteins per capsid) is 1 to 9; the GFP/capsid, Rep1 was 8.63 GFP/capsid; the GFP/capsid, Rep3 was 0.3 GFP/capsid; the GFP/capsid, avg worked out at 3.35 GFP/capsid.
For “GFP tagged with a c-Myc NLS at the C-terminus”, in test [2], the GFP/capsid (GFP-NLS per capsid) fell in the range of 1 to 3; the GFP/capsid, Rep1 turned out to be 0.89 GFP/capsid; the GFP/capsid, Rep2 worked out at 2.27 GFP/capsid; the GFP/capsid, Rep3 was 0.81 GFP/capsid. Besides, the GFP/capsid, avg in test [2] turned out to be 1.33 GFP/capsid. In test [3], the GFP/capsid (GFP-NLS per capsid) is 3 to 15; the GFP/capsid, Rep1 turned out to be 13.1 GFP/capsid; the GFP/capsid, Rep2 was found to be 2.17 GFP/capsid; the GFP/capsid, Rep3 was 1.35 GFP/capsid.
In test [2], “green fluorescent protein (GFP) (from UniProt P42212 1-238) (natural protein)” gave a GFP/capsid, Rep1 of 0.89 GFP/capsid; a GFP/capsid, Rep2 of 0.73 GFP/capsid; a GFP/capsid, Rep3 of 0.33 GFP/capsid; a GFP/capsid, avg of 0.65 GFP/capsid.
